According to article PMC2877774:
pKd: −log10 of the molar value.

Key:
[1] = target: Anti-σ domain (ASD) of Mycobacterium tuberculosis RslA (residues 1–108), Zn2+-bound (Mycobacterium tuberculosis) (UniProt P9WJ67); assay: crystal structure
[2] = target: RsrA (Streptomyces coelicolor) (UniProt Q7AKG8); details: cited from earlier work
Chain of RsrA (Streptomyces coelicolor) (Q7AKG8 whole entry): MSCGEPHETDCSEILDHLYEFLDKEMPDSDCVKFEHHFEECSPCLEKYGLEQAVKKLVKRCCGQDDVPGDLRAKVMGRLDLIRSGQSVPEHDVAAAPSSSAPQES

Chain of σR (Q7AKG9 whole entry): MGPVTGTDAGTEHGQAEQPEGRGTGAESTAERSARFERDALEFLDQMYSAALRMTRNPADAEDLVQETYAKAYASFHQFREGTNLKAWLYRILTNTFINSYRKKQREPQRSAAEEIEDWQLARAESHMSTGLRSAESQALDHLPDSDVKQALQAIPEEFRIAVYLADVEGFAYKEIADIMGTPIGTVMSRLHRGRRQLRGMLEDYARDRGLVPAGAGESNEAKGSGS
Chain of Anti-σ domain (ASD) of Mycobacterium tuberculosis RslA (residues 1–108), Zn2+-bound (Mycobacterium tuberculosis) (P9WJ67 1-108): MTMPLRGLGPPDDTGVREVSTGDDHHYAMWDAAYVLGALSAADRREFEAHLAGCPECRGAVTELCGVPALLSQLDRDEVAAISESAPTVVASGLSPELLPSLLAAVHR

Substance	stoichiometry N [1]	pKd [2]
σ4^L, the −35-element recognition domain of Mycobacterium tuberculosis σ^L (from UniProt P9WGH5 99-177) (domain or fragment)	1	–
σR (from UniProt Q7AKG9)	–	8.00
